# Measurements reported in patent publication US7582290.
# Columns and labels:
# [1] = molecular target: Elongation factor 2 (EF-2) with glycine to arginine mutation at codon 705, in DPL cells (derived from PER.C6) (human) (UniProt P13639); assay: cell-based or functional assay
# [2] = molecular target: Elongation factor 2 (EF-2), wild type, endogenous in PER.C6 and 293 cells (human) (UniProt P13639); assay: cell-based or functional assay
substance,measurement,setting,value
Diphtheria toxin (DT) (from UniProt P00588 33-567) (enzyme),cell growth in the presence of DT (DPLR1 cells),[1],100 pM
same,cell survival in the presence of DT (DPLR3 cells),[1],10 nM
same,resistance of cells to DT (DPL cells),[1],1 nM
same,cell death in the presence of DT (293 wt cells),[2],100 pM
same,cell death in the presence of DT (PER.C6 cells),[2],100 pM
same,cell death within 24 hrs in the presence of DT (PER.C6 and 293 cells),[2],10 pM
